Reference: the supplement of paper PMC12042874
± gives the uncertainty stated by the source.

Test: amyloid nucleation score (Sup35N fusion, yeast selection) (log enrichment); library NNK1; higher = more nucleation; inactive = no reads after selection
How it was run: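 Psi-negative yeast expressed Sup35N fused to peptides of 20 random codons. They were induced 24 hours with 100 μM copper sulfate, grown 7 days at 30°C without adenine and uracil, and their plasmid inserts from input and output were Illumina-sequenced. The nucleation score is the DiMSum log enrichment of output over input reads, centred on the mode score of non-aggregating sequences. Sequences with under 100 input reads were excluded.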

MLWFSGCPRGGQRGVCESQG and SVTDRKV are within error of each other in amyloid nucleation score: 0.284 ± 0.55 for the first, 0.468 ± 0.41 for the second.

Going from LGCLFNAGAFWAYGGMVSLH to VATYLLDHVYLNSCQSHCAM, the amyloid nucleation score rises from -0.024 ± 0.57 to 1 ± 0.35.

LLGAR and TPSMKWFPKLLVLVSSTRHY are within error of each other in amyloid nucleation score: 0.272 ± 0.79 for the first, -0.51 ± 0.44 for the second.

TTCGCKMHVSAHR and PVLKPGFL are within error of each other in amyloid nucleation score: 0.425 ± 1.1 for the first, -0.266 ± 0.5 for the second.

LSDFLRPLVLVFLSTLEVAM and RSCLQGFGIFAMAIMD are within error of each other in amyloid nucleation score: 0.138 ± 0.35 for the first, 0.367 ± 0.79 for the second.

DTSVFWVKIYIFGSISHWAG and MTIQVTIGNYLGLVYFFPLS are within error of each other in amyloid nucleation score: 0.606 ± 1 for the first, 1.05 ± 0.97 for the second.

RPGWSHRITENLPFVEKVGP and FPMWYYH are within error of each other in amyloid nucleation score: -0.502 ± 0.7 for the first, -0.366 ± 0.74 for the second.

SYDRNDFLGERSVGMH and MRQAGACNLRQSHVEQVCQQ are within error of each other in amyloid nucleation score: 0.736 ± 0.36 for the first, 0.135 ± 0.38 for the second.

First: CRACSHMTKLLIGTFLLLDF
Second: FGNRDFSQSDYNSCVFATGS
The amyloid nucleation score of the first is lower: -0.325 ± 0.6 for the first, 2.2 ± 0.44 for the second.

DRDASSLGFIFFFGCLEGLT and YYEAGQEPVNGMCSP are within error of each other in amyloid nucleation score: -0.93 ± 0.76 for the first, 0.07 ± 1.1 for the second.

First: VQIFEKLVQRSSVRQSENLK
Second: TRWIRYTFRFS
The amyloid nucleation score of the first is lower: 0.037 ± 0.93 for the first, 1.61 ± 0.13 for the second.

CSWDYMVVR and LLSTHVMQVLPMNQAKNILK are within error of each other in amyloid nucleation score: -0.137 ± 0.98 for the first, -0.935 ± 0.29 for the second.

WITTMHNLHELNHRGPPPKL and YFIFFLSNVFASSVIILMYM are within error of each other in amyloid nucleation score: -0.972 ± 1.8 for the first, -0.071 ± 0.36 for the second.

Compared with NRHEILHIVG, TDKSCRRNGTHAMVHFTPEL is lower in amyloid nucleation score: 1.67 ± 0.63 for the first, -1.99 ± 1.7 for the second.

WVVIR and MCGFF are within error of each other in amyloid nucleation score: -0.369 ± 1.5 for the first, -0.178 ± 0.57 for the second.

IECLLDRILDTLYVRLNFIG and VSRNFVTKDSQLNGLSN are within error of each other in amyloid nucleation score: 0.616 ± 0.79 for the first, -1.52 ± 1.4 for the second.

SVSNTYERE and GMCPLNRNGGFGNGVVEGVV are within error of each other in amyloid nucleation score: 0.879 ± 0.68 for the first, 0.166 ± 1.6 for the second.

AWKLRVFRDSAL and FFFRKTSY are within error of each other in amyloid nucleation score: 0.608 ± 1.1 for the first, 0.552 ± 0.87 for the second.

GIVRVKSTCERSPDSATYDL and PYSLQSTLHVRER are within error of each other in amyloid nucleation score: -0.205 ± 0.91 for the first, 0.485 ± 0.35 for the second.

Compared with TLIWSCARHWV, QKRRKLARLASRYFPS is lower in amyloid nucleation score: 1.44 ± 0.22 for the first, 0.325 ± 0.57 for the second.

HRRAFRQVVVTAGPKQASPM and FGHYFDTLKPYSRALWRVVS are within error of each other in amyloid nucleation score: 0.001 ± 0.56 for the first, -0.641 ± 0.61 for the second.

CWLGCYPSSGEQWGGWFNAI and EFYSVTIGNWAMNRTHWRVN are within error of each other in amyloid nucleation score: -0.344 ± 0.7 for the first, 0.461 ± 0.69 for the second.

SLNFPLLSQPAPIFVLSDKG and TGLLLLIRNICYCLNLQLWG are within error of each other in amyloid nucleation score: 0.974 ± 0.76 for the first, 0.271 ± 0.53 for the second.

WFVNWWEYVL and LCLDVLSGLCYFYLQ are within error of each other in amyloid nucleation score: 0.042 ± 0.9 for the first, 0.622 ± 0.59 for the second.

EGVNYIMKDVLLVDTKVAEN and KAVYVVNGLFVHCVTR are within error of each other in amyloid nucleation score: -0.175 ± 0.66 for the first, 0.267 ± 0.21 for the second.

First: WRSSHNDKMSY
Second: VFAMPYYSCGVLWNRGNW
The amyloid nucleation score of the first is lower: -0.889 ± 0.46 for the first, 0.566 ± 0.48 for the second.

FFNDPA and SLQHGYVVYVIVFLDATSNT are within error of each other in amyloid nucleation score: -0.311 ± 0.47 for the first, -0.186 ± 0.86 for the second.

IDIWVLLMNHGMKASPGDLE and FALKIVGVVPVAVGMTIDDW are within error of each other in amyloid nucleation score: -0.479 ± 0.42 for the first, 0.052 ± 0.85 for the second.

ISSLESRTTMRVV and GCDYARPINWCDTPYGSFNL are within error of each other in amyloid nucleation score: 0.377 ± 0.5 for the first, -2.49 ± 2.4 for the second.

SDEGLYPYLHLTFKTSTLWK and WAIFLVR are within error of each other in amyloid nucleation score: 0.201 ± 0.66 for the first, -2.31 ± 2.4 for the second.

SYGRLVGTWL and TRTESVMVLWRRMAVGGCGR are within error of each other in amyloid nucleation score: -0.111 ± 0.54 for the first, 0.362 ± 0.65 for the second.

First: TNVVRVSLCFYMY
Second: GLYIFYLSNWLFHPRF
The amyloid nucleation score of the first is higher: 8.776 ± 0.069 for the first, 0.339 ± 0.43 for the second.

First: SHELVKHGYKY
Second: RSNTRCAFKNFIFSMTCAFK
The amyloid nucleation score of the first is lower: -0.436 ± 0.47 for the first, 0.823 ± 0.5 for the second.

PKDLIVTTLHAWCDRHSYT and FWSLYD are within error of each other in amyloid nucleation score: -0.49 ± 0.76 for the first, 0.003 ± 0.4 for the second.

MGAVKH and HSHKGGWEWVSWLRREYWIA are within error of each other in amyloid nucleation score: -0.017 ± 0.3 for the first, 0.618 ± 0.47 for the second.

GDGVGFVLITHWDVVDDMGC and DLKVNCVGEWADRLFMFSFG are within error of each other in amyloid nucleation score: 0.724 ± 0.93 for the first, 0.683 ± 0.84 for the second.

First: IFIFYGTRGSFRLRVAY
Second: YCLQRQRRKGRSRSSMPEDE
The amyloid nucleation score of the first is higher: 2.72 ± 0.24 for the first, 1.52 ± 0.52 for the second.

WQLLKKCP and CIFLM are within error of each other in amyloid nucleation score: -0.576 ± 0.41 for the first, 0.21 ± 0.48 for the second.

First: FMGIGPDVEDLLW
Second: WLGVNDSLGFICEAVGWYGW
The amyloid nucleation score of the first is lower: -0.538 ± 0.41 for the first, 0.604 ± 0.63 for the second.

NKIQQGYMSPYCNHSVFVSF and PAYRRCRPFFVHAHRFMGST are within error of each other in amyloid nucleation score: -0.296 ± 0.65 for the first, 0.681 ± 0.44 for the second.

With RSWVCSSGLMVLRWNGRSYF the amyloid nucleation score was “inactive”.
With LFVGWYYYSVFSFV the amyloid nucleation score was “inactive”.
With LTGFCHFYGSIFTSYMKSL the amyloid nucleation score was “inactive”.
In the case of RLVLILSYYVRWNWGREDN, the amyloid nucleation score is reported as “inactive”.
In the case of FVMRAFNLIRWVGSACNLET, the amyloid nucleation score is reported as “inactive”.
With FGDGIDSNVSMVEN the amyloid nucleation score was “inactive”.
In the case of NMSINI, the amyloid nucleation score is reported as “inactive”.
